According to PMC8488560:

Molecular target: clathrin (triskelia purified from pig brain clathrin-coated vesicles) (pig)
Experiment: cryo-EM structure; clathrin cages assembled with a 60-fold molar excess of β2HA; single particle analysis of minicoat cages, signal subtraction, masked 3D classification and localized reconstruction; compared with clathrin-only minicoat cages

**Q.** For “β2-adaptin 616-951, hinge and appendage of the human β2 subunit of the AP2 complex (β2HA) (from UniProt P63010-2 616-951) (domain or fragment)”, which stoichiometry N (β2HA per terminal domain) is on record?
**A.** Its stoichiometry N (β2HA per terminal domain) is 0.5.
